In US5126134A, “Pharmaceutically active combination” (Ciba-Geigy Corporation, priority 1988, dated 1992):

Assays:
[1] = system: 125I-fibrinogen labelled thrombi in the jugular vein; assay: Rabbit jugular vein thrombosis model: enhancement of t-PA induced lysis; format: in vivo, New Zealand white rabbits; conditions: 0.5 mg t-PA infused i.v. over 3 hours, mean of n animals
Protocol: The experiments are performed with New Zealand white rabbits (weighing 2.3-3.5 kg) anaesthesized by intravenous (marginal ear vein) injection of 30 mg/kg sodium pentobarbital. Through a paramedical incision of the neck, the jugular veins and the right carotid artery are exposed. The right carotid artery is cannulated with a 1.5 mm diameter polyethylene cannula for blood sampling. The two jugular veins are isolated, cleared over a distance of 2 cm, small side branches are ligated. Each jugular segment is emptied of blood and blood flow is temporarily occluded both proximally and distally by two angiostaths, 1.5 cm apart. A 10 cm length 3.0 TiCron braided polyester suture, presoaked in a collagen solution, is introduced lengthwise in the lumen of the isolated jugular vein for a distance of 4 cm to avoid the embolization of the thrombus to be produced. 150 μl of citrated rabbit blood containing 5 μl of ^125 I-fibrinogen (approx. 500 000 cpm) is then aspirated in a 1 ml tubercoline syringe containing 50 μl (5 I.U.) of thrombin and 10 μl of CaCl2 (0.25M). […] At the end of the infusion, the thrombi remaining in the vessel are removed and their size is determined by measuring the amount of residual ^125 I-labeled fibrinogen remaining in the thrombi and comparing the results with those of the saline controls.

[2] = system: preformed non-radioactive thrombi in the jugular vein; assay: Rabbit jugular vein thrombosis model: inhibition of thrombus accretion during thrombolysis with t-PA; format: in vivo, New Zealand white rabbits; conditions: FIG. 1; three hours infusion of t-PA alone or along with heparin (0.75 mg/kg)
Protocol: The experiments are performed with New Zealand white rabbits (weighing 2.3-3.5 kg) anaesthesized by intravenous (marginal ear vein) injection of 30 mg/kg sodium pentobarbital. Through a paramedical incision of the neck, the jugular veins and the right carotid artery are exposed. The right carotid artery is cannulated with a 1.5 mm diameter polyethylene cannula for blood sampling. The two jugular veins are isolated, cleared over a distance of 2 cm, small side branches are ligated. Each jugular segment is emptied of blood and blood flow is temporarily occluded both proximally and distally by two angiostaths, 1.5 cm apart. A 10 cm length 3.0 TiCron braided polyester suture, presoaked in a collagen solution, is introduced lengthwise in the lumen of the isolated jugular vein for a distance of 4 cm to avoid the embolization of the thrombus to be produced. […] The effects of standard heparin and recombinant desulfato hirudin in preventing thrombus extension during thrombolysis with t-PA are assessed as their ability to inhibit the accretion of ^125 I-fibrinogen onto autologous non-radioactive thrombi preformed in the jugular vein of rabbits. […] The ratio of the radioactivity of the thrombus to the circulating fibrinogen radioactivity is used to quantify thrombus size, which is then expressed as μg or ^125 I-fibrinogen accreted onto the thrombus.

B1: t-PA: tissue-type plasminogen activator derived from melanoma cell cultures (BioResponse); infused with saline (protein, UniProt P00750 36-562, looked up)
Tissue-type plasminogen …: SYQVICRDEKTQMIYQQHQSWLRPVLRSNRVEYCWCNSGRAQCHSVPVKSCSEPRCFNGGTCQQALYFSDFVCQCPEGFAGKCCEIDTRATCYEDQGISYRGTWSTAESGAECTNWNSSALAQKPYSGRRPDAIRLGLGNHNYCRNPDRDSKPWCYVFKAGKYSSEFCSTPACSEGNSDCYFGNGSAYRGTHSLTESGASCLPWNSMILIGKVYTAQNPSAQALGLGKHNYCRNPDGDAKPWCHVLKNRRLTWEYCDVPSCSTCGLRQYSQPQFRIKGGLFADIASHPWQAAIFAKHRRSPGERFLCGGILISSCWILSAAHCFQERFPPHHLTVILGRTYRVVPGEEEQKFEVEKYIVHKEFDDDTYDNDIALLQLKSDSSRCAQESSVVRTVCLPPADLQLPDWTECELSGYGKHEALSPFYSERLKEAHVRLYPSSRCTSQHLLNRTVTDNMLCAGDTRSGGPQANLHDACQGDSGGPLVCLNDGRMTLVGIISWGLGCGQKDVPGVYTKVTNYLDWIRDNMRP
modifications: melanoma cell derived
notes: infused with saline
With B1 the “% lysis” value ([1]; First set of experiments, hirudin 1 mg/kg) was 44%, the “% lysis” value ([1]; Second set of experiments, heparin 0.75 mg/kg) was 37% and the “125I-fibrinogen accreted onto the thrombus” value [2] was 52 µg.
